Laboratory results published in article PMC3074150.

Key:
[1] = target: δ2K248S (Streptococcus pyogenes plasmid pSM19035)
[2] = target: δ2K242A (Streptococcus pyogenes plasmid pSM19035)
[3] = target: δ2K259A/K260A (Streptococcus pyogenes plasmid pSM19035)

Work on δ2K248S (enzyme) yielded a stoichiometry N [1] of 2.
Substance δ2K242A (enzyme) has a stoichiometry N [2] of 2.
With δ2K259A/K260A (enzyme) the stoichiometry N [3] was 2.
